Where a chain is given by its changes, count along the chain named. Where no end group is shown, it is not given here.
T1: human BKB2R-derived epitope peptide (SEQ ID NO:73), PEG-biotin (human, also: PEG-biotin, site not given here)
T1 construct: also called immunogenic human BKB2R peptide fragment
T1 peptide: KEYSDEGHNVTAC

B1: L2/HC: humanized light chain L2 (SEQ ID NO:9) with HC, the mouse original 5F12G1 VH (antibody)
heavy: EVKLEESGGGLVQPGGSMKLSCVVSGFTFSDYWMSWVRHSPEMGLEWVAEIRLKSDNYATHYAESVKGRFTISRDDSKSRLYLQINSLRGEDTGIYYCTRDYYAMEYWGQGTSVTVSS
light: DIVMTQSPLSLPVTPGEPASISCRSSQTIVHSNGKTYLEWYLQKPGQSPQLLIYKVSNRFSGVPDRFSGSGSGTEFTLKISRVEAEDVGVYYCFQASHVPYTFGQGTKLEIKRTVAAPSVFIFPPSDEQLKSGTASVVCLLNNFYPREAKVQWKVDNALQSGNSQESVTEQDSKDSTYSLSSTLTLSKADYEKHKVYACEVTHQGLSSPVTKSFNRGEC
modifications: left off: a dimerising Fc or GST
B2: humanized anti-BKB2R antibody L1/H2 (antibody, human IgG2, kappa, V domains shown)
VH: EVQLVESGGGLVQPGGSLRLSCVASGFTFSDYWMSWVRQAPGKGLEWVAEIRLKSDNYATHYAESVKGRFTISRDDAKNSLYLQMNSLRAEDTAVYYCTRDYYAMEYWGQGTLVTVSS
VL: DIVMTQSPLSLPVTPGEPASISCRSSQTIVHSNGKTYLEWYLQKPGQSPQLLIYKVSNRFSGVPDRFSGSGSGTDFTLKISRVEAEDVGVYYCFQASHVPYTFGQGTKLEIKR
B3: H37/L39: humanized anti-BKB2R mAb, heavy chain H37 (SEQ ID NO:5), light chain L39 (SEQ ID NO:12) (antibody, V domains shown)
VH: B2 VH with V23A, S35D, A49G, E64A, A77S, R89K, A90T, L113T
VL: DVVMTQTPLSLSVTPGQPASISCKSSQTIVHSNGKTYLEWYLQKPGQSPQLLIYKVSNRFSGVPDRFSGSGSGTDFTLKISRVEAEDVGVYYCFQASHVPYTFGQGTKLEIK
modifications: Humanized H37 Heavy Chain Variable Region VH; Humanized L39 Light Chain Region VL
B4: H37/L37: humanized anti-BKB2R mAb, heavy chain H37 (SEQ ID NO:5), light chain L37 (SEQ ID NO:10) (antibody, V domains shown)
VH: B2 VH with V23A, S35D, A49G, E64A, A77S, R89K, A90T, L113T
VL: B3 VL with V2I, E39Y, N58S
modifications: Humanized H37 Heavy Chain Variable Region VH; Humanized L37 Light Chain Variable Region VL
B5: H38/L37: humanized anti-BKB2R mAb, heavy chain H38 (SEQ ID NO:6), light chain L37 (SEQ ID NO:10) (antibody, V domains shown)
VH: B2 VH with V5L, R19K, V23A, A24V, A49S, E64D, A77S, S80T
VL: B3 VL with V2I, E39Y, N58S
modifications: Humanized H38 Heavy Chain Variable Region VH; Humanized L37 Light Chain Variable Region VL
B6: chimeric/humanized anti-BKB2R antibody L1/HC (antibody, human IgG2, V domains shown)
VH: B1 heavy
VL: B2 VL
notes: not shown: human IgG2 constant region
B7: L2/H1: humanized anti-BKB2R mAb, light chain L2 (SEQ ID NO:9), heavy chain H1 (SEQ ID NO:3) (antibody, V domains shown)
VH: B2 VH with V23A, D76N
VL: B3 VL with V2I, T7S, S12P, Q17E, K24R, D75E
modifications: Humanized H1 Heavy Chain Variable Region VH; Humanized L2 Light Chain Variable Region VL
B8: H37/L38: humanized anti-BKB2R mAb, heavy chain H37 (SEQ ID NO:5), light chain L38 (SEQ ID NO:11) (antibody, V domains shown)
VH: B2 VH with V23A, S35D, A49G, E64A, A77S, R89K, A90T, L113T
VL: B3 VL with V2I, S12P, P15S, Q17E, K24R, E39D, F60A, Q105G, L109V
modifications: Humanized H37 Heavy Chain Variable Region VH; Humanized L38 Light Chain Variable Region VL
B9: L1/H2: humanized anti-BKB2R mAb, light chain L1 (SEQ ID NO:8), heavy chain H2 (SEQ ID NO:4) (antibody, V domains shown)
VH: B2 VH
VL: B3 VL with V2I, T7S, S12P, Q17E, K24R
modifications: Humanized H2 Heavy Chain Variable Region VH; Humanized L1 Light Chain Variable Region VL
B10: L2/H2: humanized anti-BKB2R mAb, light chain L2 (SEQ ID NO:9), heavy chain H2 (SEQ ID NO:4) (antibody, V domains shown)
VH: B2 VH
VL: B3 VL with V2I, T7S, S12P, Q17E, K24R, D75E
modifications: Humanized H2 Heavy Chain Variable Region VH; Humanized L2 Light Chain Variable Region VL
B11: humanized anti-BKB2R antibody L2/H1 (antibody, human IgG2, kappa, V domains shown)
VH: B2 VH with V23A, D76N
VL: B2 VL with D75E
B12: humanized anti-BKB2R antibody L2/H2 (antibody, human IgG2, kappa, V domains shown)
VH: B2 VH
VL: B2 VL with D75E
notes: also called H2/L2
B13: H39/L38: humanized anti-BKB2R mAb, heavy chain H39 (SEQ ID NO:7), light chain L38 (SEQ ID NO:11) (antibody, V domains shown)
VH: EVKLVESGGGLVQPGGSLRLSCAVSGFTFSDYWMDWVRQAPGKGLEWVAEIRLKSDNYATHYAASVKGRFTISRDDSKSRLYLQMNSLKTEDTAVYYCTRDYYAMEYWGQGTTVTVSS
VL: B3 VL with V2I, S12P, P15S, Q17E, K24R, E39D, F60A, Q105G, L109V
modifications: Humanized H39 Heavy Chain Variable Region VH; Humanized L38 Light Chain Variable Region VL
B14: H39/L39: humanized anti-BKB2R mAb, heavy chain H39 (SEQ ID NO:7), light chain L39 (SEQ ID NO:12) (antibody, V domains shown)
VH: B13 VH
VL: B3 VL
modifications: Humanized H39 Heavy Chain Variable Region VH; Humanized L39 Light Chain Region VL

Columns and labels:
[1] = target: T2, human BKB2R-derived epitope peptide, SE ID NO:73 (Homo sapiens, UniProt P30411); assay: ForteBio Octet binding kinetics to the BKB2R epitope peptide
T2 construct: purchased Biosyn, Lewisville, Tex
Method: Proteins corresponding to all combinations of humanized or chimeric (5F12G1 VH and VL on human IgG2 backbone) antibodies were tested for binding to the human BKB2R-derived epitope peptide, SE ID NO:73.
A ForteBio (Menlo Park, Calif., USA) Octet® platform was used to analyze the binding affinities and binding characteristics of the humanized monoclonal antibodies to the peptide epitope (SEQ ID NO:73) and compared to the original mouse monoclonal 5F12G1. This platform employed label-free technology for measuring biomolecular interactions by optical analysis of the interference pattern of white light reflected from two surfaces: a layer of immobilized protein on the biosensor tip, and an internal reference layer. Any change in the number of molecules bound to the biosensor tip caused a shift in the interference pattern that was measured in real-time. Binding specificity, and rates of association and dissociation were monitored.
(§1) For the Octet study, antibodies were analyzed by kinetic titration of the antibodies. Antibodies were prepared in kinetic buffer (0.001 M phosphate buffered saline (NaCl 0.0138 M; KCl-0.00027 M); pH 7.4, at 25° C., 0.1 mg/ml BSA, 0.002% Tween and 0.005% Sodium Azide) followed by 1:2 serial dilutions.
(§2) Sensor Prep: Streptavidin biosensors (FortéBio Inc, Menlo Park, Calif.) were coated by incubation in a solution containing a peptide ([…]-PEG-biotin) (Biosyn, Lewisville, Tex.) at 50 μg/ml (300 seconds/1000 rpm shaking). 96 well half-volume plates were used for testing. 90 μl of sample was plated per well. Sensors were allowed to equilibrate to baseline in kinetic buffer (60 seconds/1000 rpm). The sensors were then placed into the various antibody dilutions to allow binding (association) to the probe for 500 seconds/1000 rpm, and measurements were taken. The sensors were then moved into kinetic buffer without antibody for dissociation (500 seconds/1000 rpm), and measurements were taken. Octet system software calculated kinetic constants for on rate/off rate/affinity.
[…] […] Each concentration was tested twice. The HC and LC represented the mouse original 5F12G1 VH and VL sequences.

[2] = target: T1, human BKB2R-derived epitope peptide …; assay: BLI (Octet), peptide-PEG-biotin on streptavidin sensor, antibody 250 nM
Method: as §1, §2
(§3) For test humanized monoclonal antibodies, the highest concentration used was 500 nM followed by 1:2 dilutions. Each concentration was tested twice. The HC and LC represented the mouse original 5F12G1 VH and VL sequences.

[3] = target: T1, human BKB2R-derived epitope peptide …; assay: BLI (Octet), peptide-PEG-biotin on streptavidin sensor, antibody 500 nM
Method: as §1, §2, §3

Row | Molecule | kdis ([1]; Conc. 250 nM) [s⁻¹] | kon ([1]; Conc. 250 nM) [M⁻¹ s⁻¹] | kdis ([1]; Conc. 500 nM) [s⁻¹] | kon ([1]; Conc. 500 nM) [M⁻¹ s⁻¹] | Kd [2] [nM] | Max Response [2] | koff [2] [s⁻¹] | kon [2] [M⁻¹ s⁻¹] | Kd [3] [nM] | Max Response [3] | koff [3] [s⁻¹] | kon [3] [M⁻¹ s⁻¹]
1 | B1 | 0.732 | 2.17e+06 | 0.655 | 145000 |  |  |  |  |  |  |  | 
2 | B2 |  |  |  |  | 2050 | 0.174 | 0.719 | 350000 | 403 | 0.161 | 0.976 | 2.43e+06
3 | B3 |  |  | 1.98 | 1.11e+06 |  |  |  |  |  |  |  | 
4 | B4 |  |  | 1.18 | 1.55e+06 |  |  |  |  |  |  |  | 
5 | B5 |  |  | 29.4 | 9.44e+06 |  |  |  |  |  |  |  | 
6 | B6 |  |  |  |  | 3040 | 0.148 | 0.728 | 239000 | 3980 | 0.194 | 2.16 | 543000
7 | B7 | 0.00438 | 216000 | 0.00507 | 1.21e+06 |  |  |  |  |  |  |  | 
8 | B8 |  |  | 2.08 | 9.47e+06 |  |  |  |  |  |  |  | 
9 | B9 | 0.719 | 350000 | 0.976 | 2.43e+06 |  |  |  |  |  |  |  | 
10 | B10 | 0.0359 | 1.76e+06 | 0.0223 | 992000 |  |  |  |  |  |  |  | 
11 | B11 |  |  |  |  | 20.3 | 0.18 | 0.00438 | 216000 | 4.19 | 0.172 | 0.00507 | 1.21e+06
12 | B12 |  |  |  |  | 20.4 | 0.171 | 0.0359 | 1.76e+06 | 22.5 | 0.171 | 0.0223 | 992000
13 | B13 |  |  | 4.9 | 6.44e+06 |  |  |  |  |  |  |  | 
14 | B14 |  |  | 1.26 | 729000 |  |  |  |  |  |  |  | 

Reference: patent publication US20140017242A1, “ANTI-BRADYKININ B2 RECEPTOR (BKB2R) MONOCLONAL ANTIBODY” (Diamedica, Inc., priority 2010, published 2014)
